The experiment addresses recombinant VE-cadherin-Fc (UniProt P55284). Nature of the experiment: atomic force microscopy.

“recombinant VE-cadherin-Fc (from UniProt P55284 46-599) (Fc fusion)”: the binding activity (binding probability) came out at 61%.

These data come from doi:10.1101/2022.10.17.512494.
